# According to paper PMC4417160, “RBM7 subunit of the NEXT complex binds U-rich sequences and targets 3′-end extended forms of snRNAs”:
# T1: RBM7 RRM (Homo sapiens (cDNA from HEK293T-Rex), UniProt Q9Y580 6-94)
# T1 sequence: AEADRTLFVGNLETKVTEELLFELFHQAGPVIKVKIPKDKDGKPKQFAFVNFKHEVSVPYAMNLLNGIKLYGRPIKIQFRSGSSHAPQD
# T2: RBM7 RRM K40A (Homo sapiens, UniProt Q9Y580 6-94, K40A)
# T2 sequence: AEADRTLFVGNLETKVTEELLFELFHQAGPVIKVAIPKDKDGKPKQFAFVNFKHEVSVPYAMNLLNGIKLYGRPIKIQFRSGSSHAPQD
# T3: RBM7 RRM K38A (Homo sapiens, UniProt Q9Y580 6-94, K38A)
# T3 sequence: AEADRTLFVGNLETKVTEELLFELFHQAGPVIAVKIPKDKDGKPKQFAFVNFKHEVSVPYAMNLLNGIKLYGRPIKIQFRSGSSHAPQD
# T4: RBM7 RRM K81A (Homo sapiens, UniProt Q9Y580 6-94, K81A)
# T4 sequence: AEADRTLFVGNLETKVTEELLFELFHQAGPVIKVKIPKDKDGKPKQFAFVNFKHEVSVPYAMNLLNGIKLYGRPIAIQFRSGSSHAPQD
# Assays:
# Experiment in all cases: fluorescence anisotropy; FA: 50 mM Tris pH 7.0 (also given as pH 8), 200 mM NaCl, 10 mM 2-mercaptoethanol, 20 C; NMR: 20 mM Bis-Tris pH 7.0, 200 mM NaCl, 4 mM 2-mercaptoethanol; pull-down: HSB, 1 h at 30 C
# Conditions in all cases: protein: recombinant; tags: 6xHis-Smt3 removed with Ulp1; label: 5' fluorescein
# [1] = target: T1, RBM7 RRM
# [2] = target: T2, RBM7 RRM K40A
# [3] = target: T3, RBM7 RRM K38A
# [4] = target: T4, RBM7 RRM K81A
Binder,Kd [1] [µM],further results
CUCU (ssRNA) [Y4],160 ± 10,–
CUCUCUC (ssRNA) [Y7],70 ± 10,Kd [2]: 200 ± 20 µM; Kd [3]: 90 ± 10 µM; Kd [4]: 100 ± 10 µM
AAAAAAA (ssRNA) [A7],–,binding result [1]: no binding
UUUUUUU (ssRNA) [U7],60 ± 10,–
CUUCU (ssRNA) [Y5],90 ± 10,–
AUUAUUA (ssRNA) [AU7],130 ± 10,–
